Measurements as given in publication PMC7408065, “Heterodimeric Radiotracer Targeting PSMA and GRPR for Imaging of Prostate Cancer—Optimization of the Affinity towards PSMA by Linker Modification in Murine Model” (Pharmaceutics, 2020).
Numbered stars: 1 amine (or outer) side, 2 acyl side, 3 side chain; on linkers, the order of the positions; unused ones are H or OH. Square brackets hold non-standard residues; d marks the D form. Peptide text beside a SMILES is read from it. * marks the point of attachment. NOTA = O=C(O)CN1CCN(CC(=O)O)CCN(CC(=O)*)CC1; γGlu = O=C(O)[C@H](CCC(=O)[*:2])N[*:1]; Sta = CC(C)C[C@H](N)[C@@H](O)CC(=O)O; AEEA = NCCOCCOCC(=O)O; Aoc = NCCCCCCCC(=O)O; CO = O=C([*:1])[*:2]

What was measured:
[1] = Distribution coefficient (LogD), n-octanol/water; type: physicochemical; conditions: indium-111 labeled compound
Description: The tube was vortexed, centrifuged and fractions (100 µL) from each phase were collected and activity was measured using a gamma counter. The experiment was repeated twice for each compound.

[2] = in vivo; parameters: species or system BALB/c nu/nu mice; conditions: BALB/c nu/nu, mouse, 40 pmol/animal, total radioactivity; for tissue uptake at 1 h: Activity uptake; for tissue to tissue ratio at 1 h / tissue to tissue ratio at 3 h / tissue to tissue ratio at 24 h: Tumor-to-organ ratio
Description: (§1) The in vivo experiments were performed using BALB/c nu/nu mice bearing PC3-pip xenografts. The mice were implanted with 5 × 10^6 PC3-pip cells 12 days prior to the experiments. In vivo experiments were planned and performed in accordance with the national legislation on laboratory animals’ protection and were approved by the Ethics Committee for Animal Research in Uppsala, Sweden. PC3-pip tumor-bearing mice were injected with 40 pmol (30 kBq) of [^111In]In-BQ7812 per mouse. Groups were also co-injected with 7.5 nmol of non-labeled NOTA-PEG4-RM26 and/or 7.5 nmol of non-labeled PSMA-11 to block GRPR and/or PSMA. Mice were euthanized at 1, 3 and 24 h pi. Organs of interest were collected, weighed and the activity uptake in each organ was measured using a gamma counter.

[3] = test system: PC3-pip xenografts; assay: in vivo; parameters: species or system BALB/c nu/nu mice; conditions: mouse
Description: as §1

With `CC(C)C[C@H](NC(=O)C[C@H](O)[C@H](CC(C)C)NC(=O)[C@H](Cc1c[nH]cn1)NC(=O)CNC(=O)[C@@H](NC(=O)[C@H](C)NC(=O)[C@H](Cc1c[nH]c2ccccc12)NC(=O)[C@H](CCC(N)=O)NC(=O)[C@@H](Cc1ccccc1)NC(=O)COCCOCCNC(=O)[C@H](CCCCNC(=O)CN1CCN(CC(=O)O)CCN(CC(=O)O)CC1)NC(=O)[C@H](Cc1ccccc1)NC(=O)CCCCCCCNC(=O)CC[C@H](NC(=O)N[C@@H](CCC(=O)O)C(=O)O)C(=O)O)C(C)C)C(N)=O` [BQ7812] ({Glu-CO-γGlu-Aoc}-FK(NOTA)[AEEA][dF]QWAVGH[Sta]L-NH2) as the compound, how does the logD [1] read?
Its logD is -1.44.

With `CC(C)C[C@H](NC(=O)C[C@H](O)[C@H](CC(C)C)NC(=O)[C@H](Cc1c[nH]cn1)NC(=O)CNC(=O)[C@@H](NC(=O)[C@H](C)NC(=O)[C@H](Cc1c[nH]c2ccccc12)NC(=O)[C@H](CCC(N)=O)NC(=O)[C@@H](Cc1ccccc1)NC(=O)COCCOCCNC(=O)[C@H](CCCCNC(=O)CN1CCN(CC(=O)O)CCN(CC(=O)O)CC1)NC(=O)[C@H](Cc1ccccc1)NC(=O)CCCCCCCNC(=O)CC[C@H](NC(=O)N[C@@H](CCC(=O)O)C(=O)O)C(=O)O)C(C)C)C(N)=O` [[^111In]In-BQ7812, metal not drawn] ({Glu-CO-γGlu-Aoc}-FK(NOTA)[AEEA][dF]QWAVGH[Sta]L-NH2) as the compound, how does the tissue uptake at 1 h ([2]; Lung) read?
Its tissue uptake at 1 h is 1.34 %ID/g.

And the tissue uptake at 1 h ([2]; Pancreas)?
Its tissue uptake at 1 h is 5.83 %ID/g.

What about the tissue to tissue ratio at 1 h ([2]; Blood) of the same compound?
Its tissue to tissue ratio at 1 h is 11.7 ± 2.3.

What about the tissue to tissue ratio at 3 h ([2]; Blood) of the same compound?
The tissue to tissue ratio at 3 h was 55.5 ± 15.6.

What about the tissue to tissue ratio at 24 h ([2]; Blood) of the same compound?
Its tissue to tissue ratio at 24 h is 68.9 ± 10.4.

And the tissue to tissue ratio at 1 h ([2]; Bone)?
Its tissue to tissue ratio at 1 h is 24.5 ± 3.25.

What about the tissue to tissue ratio at 3 h ([2]; Bone) of the same compound?
The tissue to tissue ratio at 3 h was 35.1 ± 25.7.

And the tissue to tissue ratio at 24 h ([2]; Bone)?
The tissue to tissue ratio at 24 h was 10.9 ± 2.46.

What about the tissue to tissue ratio at 1 h ([2]; Kidney) of the same compound?
The tissue to tissue ratio at 1 h was 0.27 ± 0.07.

What about the tissue to tissue ratio at 3 h ([2]; Kidney) of the same compound?
The tissue to tissue ratio at 3 h was 0.39 ± 0.09.

And the tissue to tissue ratio at 24 h ([2]; Kidney)?
The tissue to tissue ratio at 24 h was 0.18 ± 0.02.

What about the tissue to tissue ratio at 1 h ([2]; Liver) of the same compound?
Its tissue to tissue ratio at 1 h is 4.56 ± 0.77.

And the tissue to tissue ratio at 3 h ([2]; Liver)?
The tissue to tissue ratio at 3 h was 3.08 ± 1.

What about the tissue to tissue ratio at 24 h ([2]; Liver) of the same compound?
The tissue to tissue ratio at 24 h was 1.04 ± 0.15.

What about the tissue to tissue ratio at 1 h ([2]; Lung) of the same compound?
The tissue to tissue ratio at 1 h was 12.3 ± 1.34.

And the tissue to tissue ratio at 3 h ([2]; Lung)?
Its tissue to tissue ratio at 3 h is 25.3 ± 10.

What about the tissue to tissue ratio at 24 h ([2]; Lung) of the same compound?
The tissue to tissue ratio at 24 h was 13.9 ± 1.65.

What about the tissue to tissue ratio at 1 h ([2]; Muscle) of the same compound?
Its tissue to tissue ratio at 1 h is 41 ± 7.76.

What about the tissue to tissue ratio at 3 h ([2]; Muscle) of the same compound?
The tissue to tissue ratio at 3 h was 53.3 ± 24.4.

What about the tissue to tissue ratio at 24 h ([2]; Muscle) of the same compound?
Its tissue to tissue ratio at 24 h is 23.6 ± 4.58.

What about the tissue to tissue ratio at 1 h ([2]; Pancreas) of the same compound?
The tissue to tissue ratio at 1 h was 2.77 ± 0.43.

And the tissue to tissue ratio at 3 h ([2]; Pancreas)?
Its tissue to tissue ratio at 3 h is 10.9 ± 3.05.

And the tissue to tissue ratio at 24 h ([2]; Pancreas)?
The tissue to tissue ratio at 24 h was 8.19 ± 1.92.

And the tissue to tissue ratio at 1 h ([2]; Salivary glands)?
Its tissue to tissue ratio at 1 h is 18.7 ± 2.6.

What about the tissue to tissue ratio at 3 h ([2]; Salivary glands) of the same compound?
Its tissue to tissue ratio at 3 h is 20.6 ± 7.98.

What about the tissue to tissue ratio at 24 h ([2]; Salivary glands) of the same compound?
Its tissue to tissue ratio at 24 h is 7.39 ± 1.88.

What about the tissue to tissue ratio at 1 h ([2]; Small intestine) of the same compound?
Its tissue to tissue ratio at 1 h is 9.31 ± 1.8.

What about the tissue to tissue ratio at 3 h ([2]; Small intestine) of the same compound?
Its tissue to tissue ratio at 3 h is 13.4 ± 3.68.

What about the tissue to tissue ratio at 24 h ([2]; Small intestine) of the same compound?
Its tissue to tissue ratio at 24 h is 5.52 ± 2.17.

And the tissue to tissue ratio at 1 h ([2]; Spleen)?
Its tissue to tissue ratio at 1 h is 11.5 ± 2.37.

And the tissue to tissue ratio at 3 h ([2]; Spleen)?
The tissue to tissue ratio at 3 h was 20.8 ± 5.1.

What about the tissue to tissue ratio at 24 h ([2]; Spleen) of the same compound?
Its tissue to tissue ratio at 24 h is 6.32 ± 1.59.

What about the tissue to tissue ratio at 1 h ([2]; Stomach) of the same compound?
The tissue to tissue ratio at 1 h was 12.5 ± 2.36.

What about the tissue to tissue ratio at 3 h ([2]; Stomach) of the same compound?
The tissue to tissue ratio at 3 h was 18.3 ± 2.8.

What about the tissue to tissue ratio at 24 h ([2]; Stomach) of the same compound?
Its tissue to tissue ratio at 24 h is 10.5 ± 2.28.

What about the “tumor-to-liver ratio” value [3] of the same compound?
Its value is “over five”.
